This note sets out measurements from paper PMC6361964, “A transcription factor PU.1 is critical for Ccl22 gene expression in dendritic cells and macrophages”.

This data set has as its target PU.1 (UniProt P17433 1-272). The data set can be described thus: EMSA; anti-PU.1 Ab control; EMSA in 5% acrylamide gels with fluorescence detection; buffer, salt, pH and temperature not in the material. Conditions: protein: ivt; label: FLO (fluorescent).

B1: Site 1&2 probe, mouse Ccl22 promoter (dsDNA)
DNA 1: CGCTGGGGGAAGTGGGACTTCTTCTTTCAG
DNA 2: CTGAAAGAAGAAGTCCCACTTCCCCCAGCG
In the case of B1, the binding result is listed as “binds”.

B2: Site 2 probe, mouse Ccl22 promoter (dsDNA)
DNA 1: GTGGGACTTCTTCTTTCAG
DNA 2: CTGAAAGAAGAAGTCCCAC
For the molecule B2, the binding result was “binds”.

B3: Site 1 probe, mouse Ccl22 promoter (dsDNA)
DNA 1: GGCTGGGGGAAGTGGGAC
DNA 2: GTCCCACTTCCCCCAGCC
On to B3, for which the binding result is reported as “binds”.
